Laboratory results from article PMC10786891, “Massively parallel profiling of RNA-targeting CRISPR-Cas13d”.

T1: EsCas13d, nuclease-dead (Eubacterium siraeum, UniProt B0MS50, R295A;H300A;R849A;H854A)
T1 sequence: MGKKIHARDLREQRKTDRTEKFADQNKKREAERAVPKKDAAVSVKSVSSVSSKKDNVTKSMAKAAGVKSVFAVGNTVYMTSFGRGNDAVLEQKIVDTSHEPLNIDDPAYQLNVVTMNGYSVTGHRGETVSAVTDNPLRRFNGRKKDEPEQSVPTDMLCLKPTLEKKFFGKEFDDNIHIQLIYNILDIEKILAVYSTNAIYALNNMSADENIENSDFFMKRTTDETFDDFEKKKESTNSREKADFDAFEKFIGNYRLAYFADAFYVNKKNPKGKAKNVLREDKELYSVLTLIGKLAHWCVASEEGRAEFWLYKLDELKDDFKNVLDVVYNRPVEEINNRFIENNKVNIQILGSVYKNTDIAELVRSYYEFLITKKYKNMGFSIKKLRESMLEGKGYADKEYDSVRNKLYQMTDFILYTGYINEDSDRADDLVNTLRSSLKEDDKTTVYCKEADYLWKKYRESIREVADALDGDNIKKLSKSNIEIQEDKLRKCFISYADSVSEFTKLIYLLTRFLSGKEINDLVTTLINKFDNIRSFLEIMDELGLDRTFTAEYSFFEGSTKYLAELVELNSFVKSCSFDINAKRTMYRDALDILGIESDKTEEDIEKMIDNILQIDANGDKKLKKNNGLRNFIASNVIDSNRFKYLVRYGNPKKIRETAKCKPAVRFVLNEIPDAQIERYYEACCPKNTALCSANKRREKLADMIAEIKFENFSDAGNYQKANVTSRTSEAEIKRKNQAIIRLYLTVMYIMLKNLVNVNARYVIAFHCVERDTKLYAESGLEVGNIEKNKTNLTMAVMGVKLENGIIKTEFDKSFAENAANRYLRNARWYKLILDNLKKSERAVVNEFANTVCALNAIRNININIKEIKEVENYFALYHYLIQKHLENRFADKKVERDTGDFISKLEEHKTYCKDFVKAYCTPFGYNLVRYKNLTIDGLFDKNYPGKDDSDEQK

B1: target 1 del14,del19 (mixed)
RNA 1: CACCCGUGCAAAAAUGCAGGGGUCUAAAACUGAGCGGAUAACCUCUCUAUGG
RNA 2: GGGAAUGGAUCCACAUCUACGAAUUCGUACCAAGAGGGUUAUCCGCUCACCGAGAUCGGAAGAGCACACGU
B2: target 1 C2G,C7G (mixed)
RNA 1: CACCCGUGCAAAAAUGCAGGGGUCUAAAACUGAGCGGAUAACCUCUCUAUGG
RNA 2: GGGAAUGGAUCCACAUCUACGAAUUCGUACCAUAGAGAGGUUAUGCGCUGACCGAGAUCGGAAGAGCACACGU
B3: target 1 insU 3' of 20,insC 3' of 20 (mixed)
RNA 1: CACCCGUGCAAAAAUGCAGGGGUCUAAAACUGAGCGGAUAACCUCUCUAUGG
RNA 2: GGGAAUGGAUCCACAUCUACGAAUUCGUACCAUCUAGAGAGGUUAUCCGCUCACCGAGAUCGGAAGAGCACACGU
B4: target 3 U8C,A18G (mixed)
RNA 1: CACCCGUGCAAAAUUGCAGGGGUCUAAAACGACCUGAAUAUUUCAGAUCAAA
RNA 2: GGGAAUGGAUCCACAUCUACGAAUUCGUUUUUGGUCUGAAAUACUCAGGUCUGCAGAUCGGAAGAGCACACGU
B5: target 3 insC 3' of 8,insG 3' of 8 (mixed)
RNA 1: CACCCGUGCAAAAUUGCAGGGGUCUAAAACGACCUGAAUAUUUCAGAUCAAA
RNA 2: GGGAAUGGAUCCACAUCUACGAAUUCGUUUUUGAUCUGAAAUAUCGUCAGGUCUGCAGAUCGGAAGAGCACACGU
B6: target 3 U8C,U22C (mixed)
RNA 1: CACCCGUGCAAAAUUGCAGGGGUCUAAAACGACCUGAAUAUUUCAGAUCAAA
RNA 2: GGGAAUGGAUCCACAUCUACGAAUUCGUUCUUGAUCUGAAAUACUCAGGUCUGCAGAUCGGAAGAGCACACGU
B7: target 3 G4C,A18G (mixed)
RNA 1: CACCCGUGCAAAAUUGCAGGGGUCUAAAACGACCUGAAUAUUUCAGAUCAAA
RNA 2: GGGAAUGGAUCCACAUCUACGAAUUCGUUUUUGGUCUGAAAUAUUCACGUCUGCAGAUCGGAAGAGCACACGU
B8: target 3 insU 3' of 4,insU 3' of 3 (mixed)
RNA 1: CACCCGUGCAAAAUUGCAGGGGUCUAAAACGACCUGAAUAUUUCAGAUCAAA
RNA 2: GGGAAUGGAUCCACAUCUACGAAUUCGUUUUUGAUCUGAAAUAUUCAGUGUUCUGCAGAUCGGAAGAGCACACGU
B9: target 3 insU 3' of 1,insG 3' of 1 (mixed)
RNA 1: CACCCGUGCAAAAUUGCAGGGGUCUAAAACGACCUGAAUAUUUCAGAUCAAA
RNA 2: GGGAAUGGAUCCACAUCUACGAAUUCGUUUUUGAUCUGAAAUAUUCAGGUCUGUGCAGAUCGGAAGAGCACACGU
B10: target 3 insG 3' of 6,insG 3' of 1 (mixed)
RNA 1: CACCCGUGCAAAAUUGCAGGGGUCUAAAACGACCUGAAUAUUUCAGAUCAAA
RNA 2: GGGAAUGGAUCCACAUCUACGAAUUCGUUUUUGAUCUGAAAUAUUCGAGGUCGUGCAGAUCGGAAGAGCACACGU
B11: target 3 insG 3' of 6,insC 3' of 2 (mixed)
RNA 1: CACCCGUGCAAAAUUGCAGGGGUCUAAAACGACCUGAAUAUUUCAGAUCAAA
RNA 2: GGGAAUGGAUCCACAUCUACGAAUUCGUUUUUGAUCUGAAAUAUUCGAGGUCCUGCAGAUCGGAAGAGCACACGU
B12: target 3 U2A (mixed)
RNA 1: CACCCGUGCAAAAUUGCAGGGGUCUAAAACGACCUGAAUAUUUCAGAUCAAA
RNA 2: GGGAAUGGAUCCACAUCUACGAAUUCGUUUUUGAUCUGAAAUAUUCAGGACUGCAGAUCGGAAGAGCACACGU
B13: target 3 A12C,U22A (mixed)
RNA 1: CACCCGUGCAAAAUUGCAGGGGUCUAAAACGACCUGAAUAUUUCAGAUCAAA
RNA 2: GGGAAUGGAUCCACAUCUACGAAUUCGUUAUUGAUCUGACAUAUUCAGGUCUGCAGAUCGGAAGAGCACACGU
B14: target 3 complement block 2-7 (mixed)
RNA 1: CACCCGUGCAAAAUUGCAGGGGUCUAAAACGACCUGAAUAUUUCAGAUCAAA
RNA 2: GGGAAUGGAUCCACAUCUACGAAUUCGUUUUUGAUCUGAAAUAUAGUCCACUGCAGAUCGGAAGAGCACACGU
B15: target 3 insU 3' of 13,insG 3' of 2 (mixed)
RNA 1: CACCCGUGCAAAAUUGCAGGGGUCUAAAACGACCUGAAUAUUUCAGAUCAAA
RNA 2: GGGAAUGGAUCCACAUCUACGAAUUCGUUUUUGAUCUGAUAAUAUUCAGGUGCUGCAGAUCGGAAGAGCACACGU
B16: target 3 A11C,A18C (mixed)
RNA 1: CACCCGUGCAAAAUUGCAGGGGUCUAAAACGACCUGAAUAUUUCAGAUCAAA
RNA 2: GGGAAUGGAUCCACAUCUACGAAUUCGUUUUUGCUCUGAACUAUUCAGGUCUGCAGAUCGGAAGAGCACACGU
B17: target 3 insC 3' of 8,insU 3' of 5 (mixed)
RNA 1: CACCCGUGCAAAAUUGCAGGGGUCUAAAACGACCUGAAUAUUUCAGAUCAAA
RNA 2: GGGAAUGGAUCCACAUCUACGAAUUCGUUUUUGAUCUGAAAUAUCUCAUGGUCUGCAGAUCGGAAGAGCACACGU
B18: target 3 U2A,C6G (mixed)
RNA 1: CACCCGUGCAAAAUUGCAGGGGUCUAAAACGACCUGAAUAUUUCAGAUCAAA
RNA 2: GGGAAUGGAUCCACAUCUACGAAUUCGUUUUUGAUCUGAAAUAUUGAGGACUGCAGAUCGGAAGAGCACACGU
B19: target 3 insA 3' of 7,insC 3' of 5 (mixed)
RNA 1: CACCCGUGCAAAAUUGCAGGGGUCUAAAACGACCUGAAUAUUUCAGAUCAAA
RNA 2: GGGAAUGGAUCCACAUCUACGAAUUCGUUUUUGAUCUGAAAUAUUACACGGUCUGCAGAUCGGAAGAGCACACGU
B20: target 3 insU 3' of 4,insG 3' of 2 (mixed)
RNA 1: CACCCGUGCAAAAUUGCAGGGGUCUAAAACGACCUGAAUAUUUCAGAUCAAA
RNA 2: GGGAAUGGAUCCACAUCUACGAAUUCGUUUUUGAUCUGAAAUAUUCAGUGUGCUGCAGAUCGGAAGAGCACACGU
B21: target 3 insG 3' of 9,insG 3' of 2 (mixed)
RNA 1: CACCCGUGCAAAAUUGCAGGGGUCUAAAACGACCUGAAUAUUUCAGAUCAAA
RNA 2: GGGAAUGGAUCCACAUCUACGAAUUCGUUUUUGAUCUGAAAUAGUUCAGGUGCUGCAGAUCGGAAGAGCACACGU
B22: target 3 insA 3' of 6,insA 3' of 2 (mixed)
RNA 1: CACCCGUGCAAAAUUGCAGGGGUCUAAAACGACCUGAAUAUUUCAGAUCAAA
RNA 2: GGGAAUGGAUCCACAUCUACGAAUUCGUUUUUGAUCUGAAAUAUUCAAGGUACUGCAGAUCGGAAGAGCACACGU
B23: target 3 insU 3' of 16,insC 3' of 4 (mixed)
RNA 1: CACCCGUGCAAAAUUGCAGGGGUCUAAAACGACCUGAAUAUUUCAGAUCAAA
RNA 2: GGGAAUGGAUCCACAUCUACGAAUUCGUUUUUGAUCUUGAAAUAUUCAGCGUCUGCAGAUCGGAAGAGCACACGU
B24: target 3 insU 3' of 1 (mixed)
RNA 1: CACCCGUGCAAAAUUGCAGGGGUCUAAAACGACCUGAAUAUUUCAGAUCAAA
RNA 2: GGGAAUGGAUCCACAUCUACGAAUUCGUUUUUGAUCUGAAAUAUUCAGGUCUUGCAGAUCGGAAGAGCACACGU
B25: target 3 U8G,A18G (mixed)
RNA 1: CACCCGUGCAAAAUUGCAGGGGUCUAAAACGACCUGAAUAUUUCAGAUCAAA
RNA 2: GGGAAUGGAUCCACAUCUACGAAUUCGUUUUUGGUCUGAAAUAGUCAGGUCUGCAGAUCGGAAGAGCACACGU
B26: target 3 insU 3' of 5,insU 3' of 5 (mixed)
RNA 1: CACCCGUGCAAAAUUGCAGGGGUCUAAAACGACCUGAAUAUUUCAGAUCAAA
RNA 2: GGGAAUGGAUCCACAUCUACGAAUUCGUUUUUGAUCUGAAAUAUUCAUUGGUCUGCAGAUCGGAAGAGCACACGU
B27: target 3 insG 3' of 6,insA 3' of 1 (mixed)
RNA 1: CACCCGUGCAAAAUUGCAGGGGUCUAAAACGACCUGAAUAUUUCAGAUCAAA
RNA 2: GGGAAUGGAUCCACAUCUACGAAUUCGUUUUUGAUCUGAAAUAUUCGAGGUCAUGCAGAUCGGAAGAGCACACGU
B28: target 3 U2G,G3A (mixed)
RNA 1: CACCCGUGCAAAAUUGCAGGGGUCUAAAACGACCUGAAUAUUUCAGAUCAAA
RNA 2: GGGAAUGGAUCCACAUCUACGAAUUCGUUUUUGAUCUGAAAUAUUCAGAGCUGCAGAUCGGAAGAGCACACGU

The binders below were run against T1, EsCas13d, nuclease-dead (assay: crRNA (strand 1, pre-loaded); Mg2+; 40 mM Tris-HCl pH 7.5, 150 mM NaCl, 6 mM MgCl2, 1 mM DTT, 0.1% Tween-20, 0.2 mg/ml BSA; 25 C; 10 min per concentration, then washed). Settings: tags: His6-TwinStrep-SUMO cleaved; N-terminal SNAP kept (SNAP-Surface 488); label: 3' end held by stalled T7 RNA polymerase.

Q: For B1, which Kd is on record?
A: The Kd was 79 ± 25 nM.

Q: Which Kd does the source give for B2 here?
A: Its Kd is 8.9 ± 0.4 nM.

Q: How did the Kd turn out when B3 was run?
A: The Kd was 75 ± 13 nM.

Q: B4 was tested. Which Kd did it give?
A: The Kd was 55.5 ± 4.5 nM.

Q: With B5 as the binder, how does the Kd read?
A: The Kd was 79 ± 15.5 nM.

Q: With B6 as the binder, how does the Kd read?
A: Its Kd is 46 ± 8.5 nM.

Q: For B7, which Kd is on record?
A: The Kd was 34.4 ± 3.95 nM.

Q: For B8, which Kd is on record?
A: Its Kd is 15.2 ± 1.8 nM.

Q: B9 was tested. Which Kd did it give?
A: The Kd was 20.4 ± 2.25 nM.

Q: With B10 as the binder, how does the Kd read?
A: Its Kd is 25 ± 10.5 nM.

Q: Which Kd does the source give for B11 here?
A: Its Kd is 74 ± 27 nM.

Q: For B12, which Kd is on record?
A: The Kd was 24.3 ± 1.8 nM.

Q: Which Kd does the source give for B13 here?
A: The Kd was 71 ± 26 nM.

Q: With B14 as the binder, how does the Kd read?
A: Its Kd is 54.5 ± 7 nM.

Q: Which Kd does the source give for B15 here?
A: Its Kd is 35.5 ± 7 nM.

Q: How did the Kd turn out when B16 was run?
A: Its Kd is 39 ± 4 nM.

Q: Which Kd does the source give for B17 here?
A: The Kd was 79.5 ± 15 nM.

Q: For B18, which Kd is on record?
A: The Kd was 37 ± 5 nM.

Q: With B19 as the binder, how does the Kd read?
A: Its Kd is 28.2 ± 1.85 nM.

Q: For B20, which Kd is on record?
A: The Kd was 19.5 ± 2.35 nM.

Q: How did the Kd turn out when B21 was run?
A: Its Kd is 63.5 ± 14.5 nM.

Q: How did the Kd turn out when B22 was run?
A: Its Kd is 4.2 ± 0.55 nM.

Q: With B23 as the binder, how does the Kd read?
A: The Kd was 84.5 ± 27 nM.

Q: Which Kd does the source give for B24 here?
A: The Kd was 85.5 ± 18.5 nM.

Q: How did the Kd turn out when B25 was run?
A: Its Kd is 72.5 ± 14.5 nM.

Q: B26 was tested. Which Kd did it give?
A: Its Kd is 3.87 ± 0.32 nM.

Q: B27 was tested. Which Kd did it give?
A: The Kd was 76 ± 34 nM.

Q: B28 was tested. Which Kd did it give?
A: The Kd was 44 ± 6.5 nM.
